From patent US20200190209A1 (BLACK BELT THERAPEUTICS, published 2020)
Where “and” joins values, the source holds several entries; their conditions need not be identical. Identical values can stand only once. Like-named read-outs stand apart in the source and are kept apart here.

Key:
[1] = target: T1, Cynomolgus monkey CD38 (on T cells) (Cynomolgus monkey, UniProt Q5VAN0 1-301); assay: flow cytometry titration on cynomolgus T cells, gated on CD4-positive cells
T1 construct: whole, on cells; also called cyno CD38

[2] = target: T2, human CD38 (full length, on cells) (human, UniProt P28907 1-300); assay: flow cytometry titration on human PBMC, gated on CD4-positive cells
T2 construct: Endogenous on Daudi, Raji, Jurkat cells, human PBMC/T cells; full-length CD38 expressed in HEK-293T cells for alanine scanning; also called Uniprot P28907

[3] = target: T3, recombinant human CD38 his tagged (extracellular domain) (human, UniProt P28907 43-300); assay: SPR Biacore affinity, rhCD38-his
T3 construct: also called rhCD38; rhCD38-his; not shown: Histidine tag

[4] = target: T3, recombinant human CD38 his tagged …; assay: SPR Biacore 2000; IgG1 captured, rhCD38-his as analyte
Description: (§1) Anti-human antibody was initially immobilised across all flow cells in analysis buffer (pH 7.4, 10mM HEPES, 150mM NaCl, 3mM EDTA, 0.05% Tween 20) to an RU of between 12,000-14,000 over 10 minutes. […] Dissociation was performed in analysis buffer over 10 minutes. Regeneration steps between sample concentrations were performed in 3M MgCl₂, three times for 0.5 minutes. A flow rate of 25 μl/min was maintained throughout the process. Kinetics data were fit using a global fit on the analysis software provided by Biacore with reference subtraction.

[5] = target: T2, human CD38 (full length, on cells); assay: cell-based or functional assay
[6] = target: T1, Cynomolgus monkey CD38 (on T cells); assay: flow cytometry titration on cynomolgus T cells, gated on CD8-positive cells
[7] = target: T3, recombinant human CD38 his tagged …; assay: Octet BLI, avidity; rhCD38-his on Ni-NTA sensor, IgG1 in solution
Description: Avidity binding measurements of anti-CD38 Antibodies: Ni-NTA sensors were equilibrated off-line in assay buffer for 30 minutes and then monitored on-line for 60 seconds for baseline establishment. […] Then the antibody was associated at different concentrations (as described in FIGS. 25 and 30) for 30-50 minutes. Afterwards they were transferred to assay buffer for 20-30 min for off-rate measurement. Kinetics data were fit using a 1:1 binding model in the data analysis software provided by ForteBio.

[8] = target: T2, human CD38 (full length, on cells); assay: cell-based or functional assay; remark: listed apart in the source
[9] = target: T3, recombinant human CD38 his tagged …; assay: Octet BLI affinity, rhCD38
[10] = target: T3, recombinant human CD38 his tagged …; assay: Octet BLI, affinity, monovalent human CD38-HIS; IgG1
[11] = target: T2, human CD38 (full length, on cells); assay: cell-based or functional assay; remark: listed apart in the source
[12] = target: T2, human CD38 (full length, on cells); assay: flow cytometry, binding to Daudi cells
[13] = target: T2, human CD38 (full length, on cells); assay: cell-based or functional assay; remark: listed apart in the source
[14] = target: T2, human CD38 (full length, on cells); assay: flow cytometry titration on human PBMC, gated on CD8-positive cells
[15] = target: T2, human CD38 (full length, on cells); assay: flow cytometry, binding to Daudi cells; remark: listed apart in the source
[16] = target: T3, recombinant human CD38 his tagged …; assay: Octet BLI affinity, rhCD38; remark: listed apart in the source
[17] = target: T2, human CD38 (full length, on cells); assay: cell-based or functional assay; remark: listed apart in the source
[18] = target: T3, recombinant human CD38 his tagged …; assay: SPR Biacore affinity, rhCD38-his; remark: listed apart in the source
Description: as §1

[19] = target: T3, recombinant human CD38 his tagged …; assay: summary, human CD38 extracellular protein
[20] = target: T2, human CD38 (full length, on cells); assay: flow cytometry titration on human cells, gated on CD8-positive cells
Description: (§2) Unbound primary antibody was removed by washing followed by staining with a secondary antibody (5 μg/ml) 30 minutes on ice. All samples were stained in triplicates with appropriate CD3, CD4 and CD8 cross-reactive antibodies. Samples were measured by flow cytometry. For data analysis live cells were gated using FSC vs SSC parameters during sample acquisition. Mean fluorescence intensities (MFI) of stained cells were plotted on an XY chart, graphing MFI against the log of the concentration and the data fit to a non-linear regression curve from which the EC50 was calculated.

[21] = target: T1, Cynomolgus monkey CD38 (on T cells); assay: flow cytometry titration on cynomolgus T cells, gated on CD4-positive and on CD8-positive cells
Description: as §2

[22] = target: T2, human CD38 (full length, on cells); assay: flow cytometry titration on human cells, gated on CD4-positive cells
Description: as §2

[23] = target: T3, recombinant human CD38 his tagged …; assay: Octet BLI, affinity, monovalent human CD38-HIS; IgG4
[24] = target: T3, recombinant human CD38 his tagged …; assay: Octet BLI, affinity, monovalent human CD38-HIS; yeast produced

T1 sequence (Q5VAN0 whole entry): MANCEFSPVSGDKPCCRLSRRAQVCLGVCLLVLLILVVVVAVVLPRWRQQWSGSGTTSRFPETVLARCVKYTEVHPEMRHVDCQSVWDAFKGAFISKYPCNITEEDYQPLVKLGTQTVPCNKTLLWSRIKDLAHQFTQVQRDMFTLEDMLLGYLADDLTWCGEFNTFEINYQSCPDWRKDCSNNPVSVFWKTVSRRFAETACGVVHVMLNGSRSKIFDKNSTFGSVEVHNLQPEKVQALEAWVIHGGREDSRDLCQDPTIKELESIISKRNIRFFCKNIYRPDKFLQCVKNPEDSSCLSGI

B1: aCD38-b-348 (human IgG1) (antibody, V domains shown)
VH: QLQLQESGPGLVKPSETLSLTCTVSGGSISSSDYYWGWIRQPPGKGLEWIGSIYYSGSTYYNPSLKSRVTISVDTSKNQFSLKLSSVTAADTAVYYCARGQYSSGWYAYPFDMWGQGTMVTVSS
VL: EIVLTQSPGTLSLSPGERATLSCRASQSVRSSYLAWYQQKPGQAPRLLIYGASSRATGIPDRFSGSGSGTDFTLTISRLEPEDFAVYYCQQDGNVYTFGGGTKVEIK
notes: Human IgG1
EC50 (read off the curve) [1]: ~0.7 µg/mL
EC50 (read off the curve) [2]: ~0.4 nM
Kd [3]: 2 nM
Kd [4]: 2 nM
ADCC target lysis EC50 [5]: 0.0059 µg/mL
ADCC target lysis, max. % lysis [5]: 44%
EC50 (read off the curve) [6]: ~0.8 µg/mL
Kd [7]: 0.177 nM
CDC EC50, Daudi cells, 10% complement [8]: 0.17 µg/mL and 0.34 µg/mL and 0.26 µg/mL
Kd [9]: 5.79 nM
Kd [10]: 8.81 nM
ADCC EC50, Daudi target cells [11]: 0.00032 µg/mL and 0.0008 µg/mL and 0.00042 µg/mL
EC50 [12]: 0.341 µg/mL
Max MFI [12]: 2320 MFI
CDC EC50, Raji cells, 10% complement [13]: 0.3 µg/mL
CDC EC50, Raji cells, 10% complement (repeat) [13]: 0.17 µg/mL
EC50 (read off the curve) [14]: ~0.4 nM

B2: aCD38-b-329-m6 (antibody, IgG1, V domains shown)
VH: QLQLQESGPGLVKPSETLSLTCTVSGGSISSSDYYWGWIRQPPGKGLEWIGSIYYSGSTYYNPSLKSRVTISVDTSKNQFSLKLSSVTAADTAVYYCARGQYSSGWYAYPFDMWGQGTMVTVSS
VL: EIVLTQSPGTLSLSPGERATLSCRASQSVRSSYLAWYQQKPGQAPRLLIYGASSRATGIPDRFSGSGSGTDFTLTISRLEPEDFAVYYCQQDEAVFTFGGGTKVEIK
EC50 [15]: 0.651 µg/mL
Max MFI [15]: 2300 MFI
Kd [16]: 19.9 nM
ADCC target lysis EC50 [17]: 0.0024 µg/mL
ADCC target lysis, max. % lysis [17]: 47%
Kd [18]: 4.7 nM

B3: aCD38-b-329-m7 (antibody, IgG1, V domains shown)
VH: QLQLQESGPGLVKPSETLSLTCTVSGGSISSSDYYWGWIRQPPGKGLEWIGSIYYSGSTYYNPSLKSRVTISVDTSKNQFSLKLSSVTAADTAVYYCARGQYSSGWYAYPFDMWGQGTMVTVSS
VL: EIVLTQSPGTLSLSPGERATLSCRASQSVRSSYLAWYQQKPGQAPRLLIYGASSRATGIPDRFSGSGSGTDFTLTISRLEPEDFAVYYCQQDSAVFTFGGGTKVEIK
EC50 [15]: 0.745 µg/mL
Max MFI [15]: 2210 MFI
Kd [16]: 26 nM
ADCC target lysis EC50 [17]: 0.0035 µg/mL
ADCC target lysis, max. % lysis [17]: 43%
Kd [18]: 4.9 nM

B4: aCD38-b-348-m1 (antibody, IgG1, V domains shown)
VH: QLQLQESGPGLVKPSETLSLTCTVSGGSISSSDYYWGWIRQPPGKGLEWIGSIYYSGSTYYNPSLKSRVTISVDTSKNQFSLKLSSVTAADTAVYYCARGQYSSGWYAYPFDMWGQGTMVTVSS
VL: EIVLTQSPGTLSLSPGERATLSCRASQSVRSSYLAWYQQKPGQAPRLLIYGASSRATGIPDRFSGSGSGTDFTLTISRLEPEDFAVYYCQQEANVYTFGGGTKVEIK
notes: also called aCD38-b-348-ml
Kd [3]: 63 nM
ADCC target lysis EC50 [5]: 0.0028 µg/mL
ADCC target lysis, max. % lysis [5]: 38%
Kd [9]: 24.7 nM
EC50 [12]: 0.485 µg/mL
Max MFI [12]: 1610 MFI

B5: aCD38-b-348-m2 (antibody, IgG1, V domains shown)
VH: QLQLQESGPGLVKPSETLSLTCTVSGGSISSSDYYWGWIRQPPGKGLEWIGSIYYSGSTYYNPSLKSRVTISVDTSKNQFSLKLSSVTAADTAVYYCARGQYSSGWYAYPFDMWGQGTMVTVSS
VL: EIVLTQSPGTLSLSPGERATLSCRASQSVRSSYLAWYQQKPGQAPRLLIYGASSRATGIPDRFSGSGSGTDFTLTISRLEPEDFAVYYCQQDSNVYTFGGGTKVEIK
Kd [3]: 6.8 nM
ADCC target lysis EC50 [5]: 0.0025 µg/mL
ADCC target lysis, max. % lysis [5]: 44%
Kd [9]: 39.9 nM
EC50 [12]: 0.499 µg/mL
Max MFI [12]: 2220 MFI

B6: aCD38-b-348-m3 (antibody, IgG1, V domains shown)
VH: QLQLQESGPGLVKPSETLSLTCTVSGGSISSSDYYWGWIRQPPGKGLEWIGSIYYSGSTYYNPSLKSRVTISVDTSKNQFSLKLSSVTAADTAVYYCARGQYSSGWYAYPFDMWGQGTMVTVSS
VL: EIVLTQSPGTLSLSPGERATLSCRASQSVRSSYLAWYQQKPGQAPRLLIYGASSRATGIPDRFSGSGSGTDFTLTISRLEPEDFAVYYCQQDANVYTFGGGTKVEIK
Kd [3]: 28 nM
ADCC target lysis EC50 [5]: 0.0043 µg/mL
ADCC target lysis, max. % lysis [5]: 39%
Kd [9]: 55.1 nM
EC50 [12]: 0.558 µg/mL
Max MFI [12]: 2100 MFI

B7: aCD38-b-348-m4 (antibody, IgG1, V domains shown)
VH: QLQLQESGPGLVKPSETLSLTCTVSGGSISSSDYYWGWIRQPPGKGLEWIGSIYYSGSTYYNPSLKSRVTISVDTSKNQFSLKLSSVTAADTAVYYCARGQYSSGWYAYPFDMWGQGTMVTVSS
VL: EIVLTQSPGTLSLSPGERATLSCRASQSVRSSYLAWYQQKPGQAPRLLIYGASSRATGIPDRFSGSGSGTDFTLTISRLEPEDFAVYYCQQEGNVYTFGGGTKVEIK
Kd [3]: 27 nM
ADCC target lysis EC50 [5]: 0.0014 µg/mL
ADCC target lysis, max. % lysis [5]: 38%
Kd [9]: 70.1 nM
EC50 [12]: 0.299 µg/mL
Max MFI [12]: 2020 MFI

B8: aCD38-a-327 (human IgG1) (antibody, V domains shown)
VH: QVQLQESGPGLVKPSQTLSLTCTVSGGSISSGGYYWSWIRQHPGKGLEWIGYIYYSGSTYYNPSLKSRVTISVDTSKNQFSLKLSSVTAADTAVYYCARAKSELVLPYYYYMDVWGKGTTVTVSS
VL: not shown
notes: Human IgG1
Kd [19]: ~1 nM
Kd [4]: 1 nM
Kd [7]: 0.0181 nM
Kd [10]: 2.3 nM
ADCC EC50, Daudi target cells [11]: 0.03 µg/mL
ADCC max. lysis, Daudi target cells [11]: 55%

B9: aCD38-a-306 (human IgG1) (antibody, V domains shown)
VH: not shown
VL: DIQMTQSPSSLSASVGDRVTITCRASQSISSYLNWYQQKPGKAPKLLIYGASSLQSGVPSRFSGSGSGTDFTLTISSLQPEDFATYYCQQRSSTPITFGGGTKVEIK
notes: Human IgG1
Kd [4]: 1.2 nM
Kd [7]: 0.0735 nM
CDC EC50, Daudi cells, 10% complement [8]: 0.19 µg/mL
CDC max. lysis, Daudi cells, 10% complement [8]: 16.9%
ADCC EC50, Daudi target cells [11]: 0.0013 µg/mL
ADCC max. lysis, Daudi target cells [11]: 43%
EC50 (read off the curve) [20]: ~0.2 µg/mL
binding result [21]: no binding (tested: about 20 µg/ml (log 1.3))
EC50 (read off the curve) [22]: ~0.4 µg/mL

B10: aCD38-b-348 (IgG4) (antibody, V domains shown)
VH: QLQLQESGPGLVKPSETLSLTCTVSGGSISSSDYYWGWIRQPPGKGLEWIGSIYYSGSTYYNPSLKSRVTISVDTSKNQFSLKLSSVTAADTAVYYCARGQYSSGWYAYPFDMWGQGTMVTVSS
VL: EIVLTQSPGTLSLSPGERATLSCRASQSVRSSYLAWYQQKPGQAPRLLIYGASSRATGIPDRFSGSGSGTDFTLTISRLEPEDFAVYYCQQDGNVYTFGGGTKVEIK
Kd [23]: 9.24 nM

B11: aCD38-a-306 (yeast produced) (antibody, V domains shown)
VH: not shown
VL: DIQMTQSPSSLSASVGDRVTITCRASQSISSYLNWYQQKPGKAPKLLIYGASSLQSGVPSRFSGSGSGTDFTLTISSLQPEDFATYYCQQRSSTPITFGGGTKVEIK
Kd [24]: 48 nM

B12: aCD38-a-327 (IgG4) (antibody, V domains shown)
VH: QVQLQESGPGLVKPSQTLSLTCTVSGGSISSGGYYWSWIRQHPGKGLEWIGYIYYSGSTYYNPSLKSRVTISVDTSKNQFSLKLSSVTAADTAVYYCARAKSELVLPYYYYMDVWGKGTTVTVSS
VL: not shown
Kd [23]: 2.99 nM
